The Human Domainome abundance scans (Beltran et al. 2025)
± gives the uncertainty stated by the source.

B1: Far upstream element-binding protein 2, residues 142 to 214; numbered along this chain, Q92945 (parent)
chain: RTSMTEEYRVPDGMVGLIIGRGGEQINKIQQDSGCKVQISPDSGGLPERSVSLTGAPESVQKAKMMLDDIVSR

Variants of: B1
Experiment: abundance fitness (aPCA) (normalised: wild type 0, dead -1); higher = more abundant; growth selection in yeast, the domain comes from the species named
Details: Homo sapiens

Abundance fitness, by site and new letter:
V60: N -0.636 ± 0.1 | E -0.773 ± 0.068 | Y -0.763 ± 0.18 | Q -0.586 ± 0.065 | W -1.26 ± 0.089 | M -0.265 ± 0.067 | D -0.789 ± 0.089 | L -0.191 ± 0.047 | R -0.016 ± 0.037 | A -0.689 ± 0.05 | G -0.745 ± 0.044 | S -0.741 ± 0.06 | K -0.377 ± 0.069 | F -0.82 ± 0.12 | C -0.355 ± 0.079 | H -0.727 ± 0.11 | I 0.119 ± 0.073
Q61: A 0.015 ± 0.048 | G -0.053 ± 0.044 | P -0.618 ± 0.062 | M -0.051 ± 0.064 | W -0.176 ± 0.058 | V -0.102 ± 0.049 | T -0.018 ± 0.053 | H -0.196 ± 0.11 | N 0.016 ± 0.12 | S -0.06 ± 0.051 | L -0.109 ± 0.05 | R 0.013 ± 0.04 | K 0.045 ± 0.062 | F -0.106 ± 0.074 | E 0.01 ± 0.06 | D -0.168 ± 0.076 | I -0.064 ± 0.095 | C -0.164 ± 0.071
R49: H 0.025 ± 0.089 | Y -0.379 ± 0.13 | V -0.139 ± 0.047 | E -0.267 ± 0.056 | K -0.092 ± 0.063 | S -0.026 ± 0.052 | N -0.104 ± 0.13 | P -0.067 ± 0.059 | M -0.127 ± 0.062 | D -0.386 ± 0.088 | A -0.021 ± 0.057 | Q -0.08 ± 0.057 | W -0.202 ± 0.055
G55: F -1.41 ± 0.28 | K -0.681 ± 0.093 | C -0.818 ± 0.1 | N -0.922 ± 0.25 | W -1.83 ± 0.19 | P -0.937 ± 0.087 | V -1.17 ± 0.072 | L -1.18 ± 0.084 | E -0.927 ± 0.09 | Q -0.875 ± 0.098 | Y -0.878 ± 0.19 | M -1.18 ± 0.16 | R -0.965 ± 0.054 | H -0.887 ± 0.12 | A -0.882 ± 0.064 | D -0.83 ± 0.087 | T -0.732 ± 0.075 | I -1.5 ± 0.28
E48: M -0.047 ± 0.057 | N -0.161 ± 0.12 | T 0.006 ± 0.048 | P -0.065 ± 0.056 | F -0.109 ± 0.075 | H -0.007 ± 0.076 | L -0.12 ± 0.041 | A -0.063 ± 0.043 | K -0.158 ± 0.071 | V -0.103 ± 0.047 | I -0.157 ± 0.085 | R -0.12 ± 0.039 | D -0.033 ± 0.069 | S -0.024 ± 0.045 | Y 0.103 ± 0.079 | C -0.169 ± 0.069 | Q -0.038 ± 0.059 | G -0.044 ± 0.039
P47: R -0.104 ± 0.043 | G 0.002 ± 0.048 | F -0.14 ± 0.081 | S -0.021 ± 0.049 | Q -0.034 ± 0.06 | A 0.02 ± 0.048 | T -0.018 ± 0.057 | M -0.009 ± 0.07 | L -0.094 ± 0.046 | C -0.014 ± 0.076 | E -0.06 ± 0.06 | Y -0.028 ± 0.09 | W -0.32 ± 0.059 | I -0.168 ± 0.079 | V -0.146 ± 0.057 | K -0.016 ± 0.069 | D -0.002 ± 0.072 | N -0.13 ± 0.096
S43: Y -0.189 ± 0.081 | T -0.012 ± 0.048 | V -0.11 ± 0.049 | W -0.212 ± 0.054
L46: G 0.07 ± 0.039 | T -0.002 ± 0.05 | I -0.145 ± 0.07 | M -0.033 ± 0.055 | H -0.117 ± 0.085 | Y -0.153 ± 0.074 | V -0.104 ± 0.042 | D -0.045 ± 0.06 | W -0.171 ± 0.047 | F -0.097 ± 0.067 | P -0.145 ± 0.06 | A -0.056 ± 0.051 | C 0.031 ± 0.06 | N -0.144 ± 0.088 | Q -0.052 ± 0.06 | K 0.061 ± 0.063 | E -0.037 ± 0.049 | S 0.004 ± 0.044
K62: D -0.663 ± 0.076 | Y -0.278 ± 0.098 | M -0.068 ± 0.057 | Q -0.048 ± 0.052 | A -0.173 ± 0.044 | S -0.194 ± 0.042 | T -0.204 ± 0.05 | G -0.51 ± 0.043 | C -0.288 ± 0.062 | H -0.231 ± 0.07 | W -0.541 ± 0.053 | L -0.169 ± 0.043 | F -0.625 ± 0.098 | V -0.127 ± 0.046 | E -0.286 ± 0.057 | N -0.449 ± 0.094 | I -0.126 ± 0.085
V51: F -0.089 ± 0.088 | G -0.832 ± 0.048 | D -0.834 ± 0.083 | L 0.019 ± 0.052 | Q -0.947 ± 0.11 | C -0.189 ± 0.075 | E -0.84 ± 0.076 | R -0.944 ± 0.054 | M -0.122 ± 0.065 | S -0.837 ± 0.067 | A -0.503 ± 0.045 | T -0.704 ± 0.068 | H -1.3 ± 0.23 | Y -0.5 ± 0.1 | I 0.117 ± 0.085 | W -0.487 ± 0.055 | P -0.847 ± 0.08
T54: P -0.855 ± 0.057 | C -0.2 ± 0.068 | A -0.255 ± 0.047 | Q -0.158 ± 0.06 | Y 0.028 ± 0.092 | M -0.182 ± 0.062 | F -0.278 ± 0.089 | I -0.205 ± 0.078 | V -0.058 ± 0.046 | N -0.327 ± 0.088 | G -0.586 ± 0.049 | K -0.16 ± 0.074 | D -0.424 ± 0.081 | L -0.256 ± 0.047 | W -0.393 ± 0.061 | E -0.135 ± 0.054 | S -0.059 ± 0.045 | R -0.256 ± 0.041 | H -0.076 ± 0.077
S59: W -0.968 ± 0.084 | L -0.619 ± 0.049 | P -0.769 ± 0.058 | F -0.528 ± 0.1 | H -0.081 ± 0.063 | N -0.062 ± 0.097 | K -0.216 ± 0.068 | R -0.373 ± 0.039 | D 0.003 ± 0.06 | M -0.206 ± 0.054 | Y -0.727 ± 0.092 | Q -0.037 ± 0.051 | I -0.848 ± 0.12 | C -0.063 ± 0.057 | V -0.326 ± 0.046 | G -0.149 ± 0.039 | A 0.008 ± 0.043
E58: A -0.088 ± 0.05 | P -0.305 ± 0.052 | Q -0.122 ± 0.059 | S -0.102 ± 0.047 | V -0.209 ± 0.051 | Y -0.203 ± 0.1 | G -0.124 ± 0.042 | C -0.305 ± 0.08 | N -0.275 ± 0.11 | K -0.065 ± 0.068 | R -0.198 ± 0.039 | F -0.405 ± 0.11 | M -0.125 ± 0.061 | W -0.335 ± 0.053 | H -0.071 ± 0.087 | D -0.035 ± 0.088 | T -0.174 ± 0.055
S52: C 0.027 ± 0.058 | G -0.249 ± 0.04 | P -0.874 ± 0.065 | T 0.068 ± 0.049 | H 0.043 ± 0.075 | R 0.01 ± 0.036 | Q -0.011 ± 0.055 | I 0 ± 0.083 | V 0.041 ± 0.041 | F 0.007 ± 0.074 | E 0 ± 0.048 | Y 0.097 ± 0.083 | M 0.047 ± 0.06 | N -0.177 ± 0.093 | W 0.01 ± 0.05 | A -0.094 ± 0.044 | L 0.059 ± 0.041 | D -0.312 ± 0.067
S50: F -0.218 ± 0.092 | A -0.04 ± 0.047 | R 0.018 ± 0.042 | E -0.193 ± 0.059 | I 0.126 ± 0.11 | Q -0.139 ± 0.057 | N -0.085 ± 0.11 | M -0.125 ± 0.064 | G -0.071 ± 0.043 | W -0.118 ± 0.061 | T 0.008 ± 0.055 | L -0.067 ± 0.045 | C 0.043 ± 0.071 | P -0.159 ± 0.055 | Y -0.137 ± 0.085 | D -0.289 ± 0.074 | V -0.002 ± 0.046 | K 0.044 ± 0.069
A56: R 0.012 ± 0.041 | E -0.003 ± 0.058 | D -0.025 ± 0.077 | N -0.272 ± 0.11 | V -0.099 ± 0.051 | T 0.113 ± 0.051 | K -0.153 ± 0.075 | G -0.114 ± 0.041 | S -0.008 ± 0.052 | L -0.1 ± 0.048 | W -0.281 ± 0.057 | Q -0.1 ± 0.063 | H 0.026 ± 0.081 | M -0.154 ± 0.08 | F -0.315 ± 0.084 | I -0.126 ± 0.11 | Y -0.091 ± 0.095 | C 0.088 ± 0.074
L53: P -0.998 ± 0.076 | V -0.369 ± 0.047 | C -0.379 ± 0.082 | Y -1.04 ± 0.23 | K -1 ± 0.098 | W -0.994 ± 0.08 | S -0.754 ± 0.061 | T -0.648 ± 0.062 | A -0.817 ± 0.056 | I -0.09 ± 0.11 | Q -0.784 ± 0.083 | E -0.869 ± 0.063 | N -0.634 ± 0.18 | F -0.491 ± 0.11 | D -0.72 ± 0.1 | R -0.854 ± 0.048 | H -0.733 ± 0.12
G44: M 0.007 ± 0.069 | F -0.194 ± 0.096 | T -0.017 ± 0.051 | R -0.071 ± 0.04 | A -0.051 ± 0.045 | S -0.09 ± 0.047 | V -0.133 ± 0.045 | P -0.137 ± 0.054 | I -0.339 ± 0.13 | Q 0.034 ± 0.062 | E 0.008 ± 0.054 | C -0.105 ± 0.068 | Y -0.084 ± 0.12 | L -0.125 ± 0.048 | K 0.019 ± 0.071 | D 0.02 ± 0.066 | W -0.338 ± 0.06 | H -0.083 ± 0.069
G45: Y -0.299 ± 0.1 | Q -0.1 ± 0.063 | R -0.164 ± 0.042 | D -0.102 ± 0.07 | C -0.168 ± 0.064 | F -0.218 ± 0.081 | L -0.193 ± 0.05 | N -0.11 ± 0.076 | T -0.079 ± 0.053 | E -0.064 ± 0.054 | K -0.207 ± 0.066 | V -0.107 ± 0.046 | S -0.113 ± 0.05 | H -0.011 ± 0.095 | A -0.211 ± 0.05 | W -0.351 ± 0.056 | M -0.208 ± 0.063
P57: F -0.357 ± 0.084 | E -0.259 ± 0.059 | H -0.213 ± 0.084 | M -0.225 ± 0.066 | A -0.101 ± 0.049 | C -0.432 ± 0.082 | W -0.24 ± 0.059 | R -0.141 ± 0.039 | S -0.245 ± 0.05 | L -0.316 ± 0.049 | G -0.434 ± 0.048 | T -0.325 ± 0.061 | I -0.289 ± 0.099 | V -0.192 ± 0.049 | Y -0.402 ± 0.099 | D -0.609 ± 0.091 | K -0.185 ± 0.071
